Test [1] has as its target T1, recombinant MAGEA3 protein (human, UniProt P43357 1-314).
T1 construct: In Experiment 4C MAGEA3 was also expressed in transiently transfected HEK293T cells (fixed and permeabilized); also called His-tagged MAGEA3; CT1.3
As to the kind of experiment: ELISA, recombinant MAGEA3 coated to plastic, serial dilutions of antibody, OD 450 nm. On the procedure:
FIG. 4 EC50 determination of recombinant human monoclonal antibodies to MAGEA3. MAGEA3-ELISA was carried out using recombinant MAGEA3 coated to plastic and serial dilutions of the human monoclonal antibodies 21B4, 54B4, 94G11, 9A5, 31H10, 43B10, 2G4, 20C10, 26C9 and 4D6 (A-J). EC50 values are indicated in each figure.
The EC₅₀, the concentration at which half-maximal binding of the antibody to its antigen is observed was determined in MAGEA3 ELISA using serial dilutions of the human monoclonal antibodies 21B4, 54B4, 94G11, 9A5, 31H10, 43B10, 2G4, 20C10, 26C9 and 4D6. EC50 values were determined mathematically by derivation of the best-fit line using GraphPad software.
Background: An ELISA detects its analyte on a solid surface through an enzyme-linked reagent.

Test [2] has as its target T2, MAGEA3 peptide No 7.
T2 construct: member of the group m18; also called 20mer peptide, amino acids 61-80 of MAGEA3
T2 peptide: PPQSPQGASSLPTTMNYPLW
As to the kind of experiment: ELISA on plates coated with overlapping 20mer MAGEA3 peptides; antibody at 1 µg/ml; HRP goat anti-human IgG Fc-gamma. The protocol:
(§1) 20mer peptides spanning the entire MAGEA3 protein with 10 aa overlaps shared by each adjacent peptide (Peptides&Elephants, Nuthetal, Germany) were used to coat Maxisorp ELISA plates (Nunc, Rochester, N.Y.). As control a 20mer peptide representing amino acids 40-21 from the NY-ESO-1 protein was used (rev). The numbering of amino acids of MAGEA3 is based on SEQ ID No.: 101.
(§2) Human recombinant antibody was used at a concentration of 1 μg/ml with the exception of antibody 9A5 which was used at […]. Bound human antibody was detected using horseradish peroxidase-conjugated goat anti-human IgG Fc-gamma specific antibodies (Jackson ImmunoResearch, Europe Ltd., Cambridgeshire, UK).

The target of test [3] is T3, MAGEA3 peptide No 24.
T3 construct: member of the group m18; also called 20mer peptide, amino acids 231-250 of MAGEA3
T3 peptide: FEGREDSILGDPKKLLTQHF
The test is described as above. On the procedure: as §1, §2

In test [4] the target is T4, MAGEA3 peptide No 8.
T4 construct: member of the group m18; also called 20mer peptide, amino acids 71-90 of MAGEA3
T4 peptide: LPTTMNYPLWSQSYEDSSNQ
The test is described as above. The protocol:
as §1, §2

The target in test [5] is T5, recombinant MAGEA1 (UniProt P43355 1-309, limits assumed).
T5 construct: also called CT1.1
T5 sequence (looked up): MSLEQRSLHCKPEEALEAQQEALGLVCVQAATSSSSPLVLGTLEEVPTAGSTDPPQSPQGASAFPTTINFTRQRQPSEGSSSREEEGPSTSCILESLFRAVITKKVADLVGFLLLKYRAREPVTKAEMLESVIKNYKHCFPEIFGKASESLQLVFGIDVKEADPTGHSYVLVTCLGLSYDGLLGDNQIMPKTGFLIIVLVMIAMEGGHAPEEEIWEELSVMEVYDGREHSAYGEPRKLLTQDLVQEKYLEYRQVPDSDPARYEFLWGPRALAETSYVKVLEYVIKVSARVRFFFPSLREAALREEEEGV
As to the kind of experiment: ELISA on coated recombinant MAGEA proteins, serial dilutions of antibody (concentrations not printed on the sheet). On the procedure:
(§3) Recombinantly expressed MAGEA3, MAGEA1, MAGEA4, MAGEA10 were coated on ELISA plates and binding of MAGEA3 antibodies 21B4, 94G11, 2G4, 9A5 and 54B4 to these proteins was tested. The results are depicted in FIG. 3B).

Test [6] concerns the target T6, recombinant MAGEA4 (UniProt P43358 1-317, limits assumed).
T6 construct: also called CT1.4
T6 sequence (looked up): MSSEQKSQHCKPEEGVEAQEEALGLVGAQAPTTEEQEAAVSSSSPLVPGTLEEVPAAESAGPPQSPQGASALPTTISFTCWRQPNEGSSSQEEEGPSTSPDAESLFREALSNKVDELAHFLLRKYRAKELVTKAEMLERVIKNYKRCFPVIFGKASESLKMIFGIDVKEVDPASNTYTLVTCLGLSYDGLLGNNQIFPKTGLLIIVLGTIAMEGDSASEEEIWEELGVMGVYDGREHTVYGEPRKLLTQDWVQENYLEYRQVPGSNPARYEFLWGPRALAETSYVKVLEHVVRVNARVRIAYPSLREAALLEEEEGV
Described as above. On the procedure: as §3

Test [7] addresses T7, recombinant MAGEA10 (UniProt P43363 1-369, limits assumed).
T7 construct: also called CT1.10
Described as above. The protocol: as §3

Test [8] concerns the target T8, MAGEA6 (UniProt P43360 1-314, limits assumed).
T8 construct: whole, on cells; Intracellular antigen: the transfected cells were fixed and permeabilized before staining; also called CT1.6
As to the kind of experiment: flow cytometry on fixed, permeabilized HEK293T cells transiently transfected with MAGEA6; PE-labeled anti-human antibody. On the procedure: HEK293T cells transiently transfected with MAGEA3 or MAGE A6 were fixed and permeabilized and incubated with human-derived antibodies. Binding of human-derived antibodies to the cells was detected by flow cytometry using PE-labeled anti-human antibodies. […] Filled histograms show binding of 21B4, 31H10, 94G11 and 54B4 to transiently transfected HEK 293 cells. Only a proportion of the cells was transfected resulting in a population expressing the transgene and in a population not expressing the transgene. […] The results are depicted in FIG. 3C).
A general note: In flow cytometry, cells or beads pass a laser one at a time.

The values below come from patent US20140093514A1 (UNIVERSITY OF ZURICH, published 2014).

T1 sequence (P43357 whole entry): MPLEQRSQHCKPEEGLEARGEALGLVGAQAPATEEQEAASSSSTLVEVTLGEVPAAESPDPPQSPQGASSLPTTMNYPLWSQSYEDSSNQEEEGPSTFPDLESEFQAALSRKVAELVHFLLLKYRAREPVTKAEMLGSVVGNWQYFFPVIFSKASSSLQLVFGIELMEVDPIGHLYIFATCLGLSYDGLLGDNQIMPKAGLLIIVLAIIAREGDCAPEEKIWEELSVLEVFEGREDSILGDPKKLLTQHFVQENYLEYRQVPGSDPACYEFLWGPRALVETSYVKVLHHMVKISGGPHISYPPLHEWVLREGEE
T8 sequence (P43360 whole entry): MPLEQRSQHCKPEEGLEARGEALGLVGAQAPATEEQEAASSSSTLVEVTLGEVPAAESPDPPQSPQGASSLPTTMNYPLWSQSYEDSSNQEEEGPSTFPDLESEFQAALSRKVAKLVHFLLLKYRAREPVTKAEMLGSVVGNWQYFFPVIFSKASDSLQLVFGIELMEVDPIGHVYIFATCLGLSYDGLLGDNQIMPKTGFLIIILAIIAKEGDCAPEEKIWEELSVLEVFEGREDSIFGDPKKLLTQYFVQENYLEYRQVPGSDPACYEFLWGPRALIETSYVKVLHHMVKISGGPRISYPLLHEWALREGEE
T7 sequence (P43363 whole entry): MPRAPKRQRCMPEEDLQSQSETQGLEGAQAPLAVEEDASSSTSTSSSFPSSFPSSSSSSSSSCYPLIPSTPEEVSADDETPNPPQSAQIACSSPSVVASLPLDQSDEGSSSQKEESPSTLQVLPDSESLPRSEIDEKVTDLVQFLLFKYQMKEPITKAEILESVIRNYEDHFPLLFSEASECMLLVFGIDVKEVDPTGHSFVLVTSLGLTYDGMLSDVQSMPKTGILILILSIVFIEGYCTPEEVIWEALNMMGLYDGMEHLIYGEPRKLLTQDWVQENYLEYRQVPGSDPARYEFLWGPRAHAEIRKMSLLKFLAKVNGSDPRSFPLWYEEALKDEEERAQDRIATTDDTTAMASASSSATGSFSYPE

B1: 21B4 (antibody, V domains shown)
VH: QVQLVESGGGVVQPGRSLRLSCTASGFRFRSHGMHWVRQAPGKGLEWVAVISYDGNNKLYADSVKGRITISRDNSKNTLFLQMNNVRAEDTAVYYCASPYTSDWQYFQYWGQGTLVIVSS
VL: EIVMTQSPATLSVSPGERATFSCRASQNISTTLAWYQQKPGQAPRLLIYDTSTRATGIPARFSGSGSGTEFTLTISSLQSEDLAVYYCQQSNSWPLTFGGGTKVEIK
notes: Patient-derived; also called human-derived recombinant antibody 21B4; human monoclonal antibody 21B4
For B1, the EC50 in test [1] was 0.0313 nM. The binding result is given as “binds” in test [2]; “binds” in test [3]; “binds” in test [4]; “no binding” in test [5]; “no binding” in test [6]; “no binding” in test [7]. In addition, the binding result in test [8] was “binds”.

Broadly, the EC50 is the concentration needed to bring the measured effect to its halfway point.
